Article PMC6336354, “A transient helix in the disordered region of dynein light intermediate chain links the motor to structurally diverse adaptors for cargo transport” (PLoS Biology, 2019)

What was measured:
Experiment in all cases: pull-down; GST::LIC::6xHis (50 pmol) with 50 or 250 pmol adaptor and glutathione agarose, 1 h at 4°C, 150 μL of 50 mM HEPES, 100 mM NaCl, 5 mM DTT, pH 7.5, 0.1% Tween 20; Coomassie staining and immunoblot against Strep-tag II
Settings in all cases: both partners purified
[1] = biological target: T1, SPDL1(2–359)::Strep-tag II (human, UniProt Q96EA4 2-359)
T1 construct: human Spindly (SPDL1), N-terminal region, residues 2-359; also called Spindly; source: E. coli BL21, purified (Ni-NTA, TEV cleavage, Strep-Tactin; dialysis or SEC); not shown: 6xHis::MBP, N-terminal, cleaved; Strep-tag II (after linker GSGSGR), C-terminal, kept
T1 sequence (looked up): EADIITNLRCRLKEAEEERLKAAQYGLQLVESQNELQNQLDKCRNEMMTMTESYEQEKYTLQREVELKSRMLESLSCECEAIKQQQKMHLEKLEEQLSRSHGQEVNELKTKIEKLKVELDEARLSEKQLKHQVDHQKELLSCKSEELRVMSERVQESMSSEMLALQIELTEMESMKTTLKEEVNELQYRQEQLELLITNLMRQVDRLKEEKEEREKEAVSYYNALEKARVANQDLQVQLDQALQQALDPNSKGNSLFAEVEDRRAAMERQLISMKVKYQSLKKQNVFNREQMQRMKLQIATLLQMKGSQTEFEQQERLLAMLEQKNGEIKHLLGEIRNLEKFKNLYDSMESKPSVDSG

[2] = biological target: T2, BICD2(2–422)::Strep-tag II (human, UniProt Q8TD16 2-422)
T2 construct: human bicaudal D homolog 2 (BICD2), N-terminal region, residues 2-422; also called bicaudal D homolog 2; source: E. coli BL21, purified (Ni-NTA, TEV cleavage, Strep-Tactin; dialysis or SEC); not shown: 6xHis::MBP, N-terminal, cleaved; Strep-tag II (after linker GSGSGR), C-terminal, kept
T2 sequence (Q8TD16 2-422): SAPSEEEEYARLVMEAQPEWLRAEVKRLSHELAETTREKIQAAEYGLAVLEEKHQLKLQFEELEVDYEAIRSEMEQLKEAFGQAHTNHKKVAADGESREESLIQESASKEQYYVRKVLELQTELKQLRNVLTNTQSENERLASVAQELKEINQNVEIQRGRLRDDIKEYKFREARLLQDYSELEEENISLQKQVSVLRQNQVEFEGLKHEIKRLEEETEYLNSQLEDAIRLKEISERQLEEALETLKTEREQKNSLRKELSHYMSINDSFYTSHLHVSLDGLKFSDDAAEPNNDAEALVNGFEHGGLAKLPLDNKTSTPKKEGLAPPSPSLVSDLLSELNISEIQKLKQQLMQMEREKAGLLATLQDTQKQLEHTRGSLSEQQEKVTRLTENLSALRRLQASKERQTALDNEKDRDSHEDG

[3] = biological target: T3, RAB11FIP3(2–756)::Strep-tag II (human, UniProt O75154 2-756)
T3 construct: source: E. coli BL21, purified (Ni-NTA, TEV cleavage, Strep-Tactin; dialysis or SEC); not shown: 6xHis::MBP, N-terminal, cleaved; Strep-tag II (after linker GSGSGR), C-terminal, kept
T3 sequence (looked up): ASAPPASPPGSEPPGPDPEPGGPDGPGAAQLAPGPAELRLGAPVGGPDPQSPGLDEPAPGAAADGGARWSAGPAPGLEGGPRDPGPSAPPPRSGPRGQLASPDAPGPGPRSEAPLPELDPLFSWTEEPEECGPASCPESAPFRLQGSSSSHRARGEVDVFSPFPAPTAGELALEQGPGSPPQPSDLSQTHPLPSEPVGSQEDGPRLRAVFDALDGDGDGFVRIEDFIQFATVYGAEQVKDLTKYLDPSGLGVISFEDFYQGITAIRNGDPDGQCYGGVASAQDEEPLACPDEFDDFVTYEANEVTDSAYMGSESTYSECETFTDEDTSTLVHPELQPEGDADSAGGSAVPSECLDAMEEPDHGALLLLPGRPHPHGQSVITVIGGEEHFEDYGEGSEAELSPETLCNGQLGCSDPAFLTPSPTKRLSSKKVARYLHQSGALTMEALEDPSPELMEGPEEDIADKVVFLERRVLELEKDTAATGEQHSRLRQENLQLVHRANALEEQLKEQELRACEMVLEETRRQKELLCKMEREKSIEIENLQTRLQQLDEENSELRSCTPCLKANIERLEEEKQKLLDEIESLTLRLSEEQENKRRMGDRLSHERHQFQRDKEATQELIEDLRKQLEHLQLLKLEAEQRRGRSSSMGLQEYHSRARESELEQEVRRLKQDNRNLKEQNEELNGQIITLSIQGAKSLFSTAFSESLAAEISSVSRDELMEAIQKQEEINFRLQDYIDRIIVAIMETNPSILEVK

NIN(1–693)::Strep-tag II = biological target: T4, NIN(1–693)::Strep-tag II (human, UniProt Q8N4C6 1-693)
T4 construct: human ninein (NIN), N-terminal fragment, residues 1-693 of 2,090; also called ninein; source: E. coli Rosetta, purified (Ni-NTA, TEV cleavage, Strep-Tactin; dialysis or SEC); not shown: 6xHis::MBP, N-terminal, cleaved; Strep-tag II (after linker GSGSGR), C-terminal, kept
T4 sequence (looked up): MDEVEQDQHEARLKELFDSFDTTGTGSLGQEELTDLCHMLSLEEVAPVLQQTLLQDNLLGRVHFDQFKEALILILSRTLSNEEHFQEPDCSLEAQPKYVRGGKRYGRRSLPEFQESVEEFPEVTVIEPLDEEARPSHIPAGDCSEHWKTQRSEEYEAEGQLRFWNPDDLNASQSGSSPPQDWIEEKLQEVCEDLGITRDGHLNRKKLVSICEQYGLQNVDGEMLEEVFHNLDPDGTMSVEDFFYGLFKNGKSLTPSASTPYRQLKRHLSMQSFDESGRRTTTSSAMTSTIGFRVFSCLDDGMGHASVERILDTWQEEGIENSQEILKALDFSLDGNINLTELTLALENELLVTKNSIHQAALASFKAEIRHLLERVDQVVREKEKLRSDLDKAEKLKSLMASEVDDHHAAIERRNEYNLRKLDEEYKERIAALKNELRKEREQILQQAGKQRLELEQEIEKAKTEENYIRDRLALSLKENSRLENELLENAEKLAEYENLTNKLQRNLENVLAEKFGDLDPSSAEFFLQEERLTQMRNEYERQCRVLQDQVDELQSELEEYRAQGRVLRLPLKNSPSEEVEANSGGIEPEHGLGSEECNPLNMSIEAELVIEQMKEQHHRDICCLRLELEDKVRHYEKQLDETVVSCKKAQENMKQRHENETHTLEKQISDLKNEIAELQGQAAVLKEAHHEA

Measured: binding result

B1: GST::LIC2(375–492)::6xHis (domain or fragment, human)
chain: WATPTRASESPARGPSGSPRTQGRGGPASVPSSSPGTSVKKPDPNIKNNAASEGVLASFFNSLLSKKTGSPGSPGAGGVQSTAKKSGQKTVLSNVQEELDRMTRKPDSMVTNSSTENEA
notes: single N-terminal tryptophan added in the construct; also called LIC2-C; source: E. coli BL21, purified (glutathione agarose, Ni-NTA; dialysis or SEC); not shown: GST, N-terminal, kept; 6xHis (after linker GSGSG), C-terminal, kept
binds: all assays above

B2: GST::LIC2(375–450)::6xHis (domain or fragment, human)
chain: WATPTRASESPARGPSGSPRTQGRGGPASVPSSSPGTSVKKPDPNIKNNAASEGVLASFFNSLLSKKTGSPGSPGAG
notes: single N-terminal tryptophan added in the construct; source: E. coli BL21, purified (glutathione agarose, Ni-NTA; dialysis or SEC); not shown: GST, N-terminal, kept; 6xHis (after linker GSGSG), C-terminal, kept
binds: all assays above

B3: GST::LIC1(414–471)::6xHis (domain or fragment, human)
chain: WSSNVASVSPIPAGSKKIDPNMKAGATSEGVLANFFNSLLSKKTGSPGGPGVSGGSPAG
notes: single N-terminal tryptophan added in the construct; human dynein light intermediate chain 1 (DYNC1LI1), residues 414-471; source: E. coli BL21, purified (glutathione agarose, Ni-NTA; dialysis or SEC); not shown: GST, N-terminal, kept; 6xHis (after linker GSGSG), C-terminal, kept
binds: all assays above

B4: GST::LIC1(402–471)::6xHis (domain or fragment, human)
chain: WPGGSPRTPNRSVSSNVASVSPIPAGSKKIDPNMKAGATSEGVLANFFNSLLSKKTGSPGGPGVSGGSPAG
notes: single N-terminal tryptophan added in the construct; human dynein light intermediate chain 1 (DYNC1LI1), residues 402-471; source: E. coli BL21, purified (glutathione agarose, Ni-NTA; dialysis or SEC); not shown: GST, N-terminal, kept; 6xHis (after linker GSGSG), C-terminal, kept
binds: all assays above
